Where two headings read alike, the source gives them in different places.
Columns and labels:
Experiment in all cases: two-hybrid library CCmax;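 note: natural log of median RNA to DNA barcode read ratio; higher means stronger binding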
P6-AA-1HAA-D = target: T1, P6-AA-1HAA-D; details: mean of both orientations
T1 chain: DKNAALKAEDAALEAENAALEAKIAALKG

P6-AA-1HAA-E = target: T2, P6-AA-1HAA-E; details: mean of both orientations
T2 chain: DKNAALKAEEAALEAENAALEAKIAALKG

P6-AA-1HAA-H = target: T3, P6-AA-1HAA-H
T3 chain: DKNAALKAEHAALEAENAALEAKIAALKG

P6-AA-1HAA-K = target: T4, P6-AA-1HAA-K
T4 chain: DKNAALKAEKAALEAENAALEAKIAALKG

P6-AA-1HAA-L = target: T5, P6-AA-1HAA-L; details: mean of both orientations
T5 chain: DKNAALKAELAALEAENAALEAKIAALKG

P6-AA-1HAA-N = target: T6, P6-AA-1HAA-N; details: mean of both orientations
T6 chain: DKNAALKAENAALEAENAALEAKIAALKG

P6-AA-1HAA-R = target: T7, P6-AA-1HAA-R; details: mean of both orientations
T7 chain: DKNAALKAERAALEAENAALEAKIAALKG

P6-AA-1HAA-S = target: T8, P6-AA-1HAA-S; details: mean of both orientations
T8 chain: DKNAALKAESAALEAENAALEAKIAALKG

P6-AA-1HAA-T = target: T9, P6-AA-1HAA-T; details: mean of both orientations
T9 chain: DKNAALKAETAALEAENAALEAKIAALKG

P6-AA-1HAA-V = target: T10, P6-AA-1HAA-V; details: mean of both orientations
T10 chain: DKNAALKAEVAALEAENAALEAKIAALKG

P6-AA-1HAA-Y = target: T11, P6-AA-1HAA-Y; details: mean of both orientations
T11 chain: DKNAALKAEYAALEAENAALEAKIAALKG

P2-AA-12HAA-D = target: T12, P2-AA-12HAA-D; details: mean of both orientations
T12 chain: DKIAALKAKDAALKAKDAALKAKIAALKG

P2-AA-12HAA-E = target: T13, P2-AA-12HAA-E
T13 chain: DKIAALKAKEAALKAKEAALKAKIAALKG

P2-AA-12HAA-H = target: T14, P2-AA-12HAA-H; details: mean of both orientations
T14 chain: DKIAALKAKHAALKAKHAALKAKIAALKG

P2-AA-12HAA-I = target: T15, P2-AA-12HAA-I; details: mean of both orientations
T15 chain: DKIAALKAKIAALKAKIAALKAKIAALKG

P2-AA-12HAA-K = target: T16, P2-AA-12HAA-K; details: mean of both orientations
T16 chain: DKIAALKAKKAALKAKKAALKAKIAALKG

P2-AA-12HAA-L = target: T17, P2-AA-12HAA-L
T17 chain: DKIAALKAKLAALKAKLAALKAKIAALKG

P2-AA-12HAA-R = target: T18, P2-AA-12HAA-R
T18 chain: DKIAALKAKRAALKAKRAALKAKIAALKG

P2-AA-12HAA-S = target: T19, P2-AA-12HAA-S
T19 chain: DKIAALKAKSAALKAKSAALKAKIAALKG

P2-AA-12HAA-T = target: T20, P2-AA-12HAA-T; details: mean of both orientations
T20 chain: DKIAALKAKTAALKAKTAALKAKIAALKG

P2-AA-12HAA-V = target: T21, P2-AA-12HAA-V; details: mean of both orientations
T21 chain: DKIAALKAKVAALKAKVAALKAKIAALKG

P2-AA-12HAA-Y = target: T22, P2-AA-12HAA-Y; details: mean of both orientations
T22 chain: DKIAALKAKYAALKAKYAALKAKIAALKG

P2-AA = target: T23, P2-AA; details: mean of both orientations
T23 chain: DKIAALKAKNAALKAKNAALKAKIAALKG

P6-AA-12HAA-D = target: T24, P6-AA-12HAA-D; details: mean of both orientations
T24 chain: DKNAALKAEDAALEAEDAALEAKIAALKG

P6-AA-12HAA-E = target: T25, P6-AA-12HAA-E; details: mean of both orientations
T25 chain: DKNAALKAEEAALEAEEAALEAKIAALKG

P6-AA-12HAA-H = target: T26, P6-AA-12HAA-H; details: mean of both orientations
T26 chain: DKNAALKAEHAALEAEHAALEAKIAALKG

P6-AA-12HAA-K = target: T27, P6-AA-12HAA-K; details: mean of both orientations
T27 chain: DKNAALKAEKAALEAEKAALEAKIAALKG

P6-AA-12HAA-L = target: T28, P6-AA-12HAA-L; details: mean of both orientations
T28 chain: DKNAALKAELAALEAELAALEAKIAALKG

P6-AA-12HAA-R = target: T29, P6-AA-12HAA-R; details: mean of both orientations
T29 chain: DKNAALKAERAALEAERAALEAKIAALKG

P6-AA-12HAA-S = target: T30, P6-AA-12HAA-S; details: mean of both orientations
T30 chain: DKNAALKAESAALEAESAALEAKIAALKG

P6-AA-12HAA-T = target: T31, P6-AA-12HAA-T; details: mean of both orientations
T31 chain: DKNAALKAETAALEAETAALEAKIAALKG

P6-AA-12HAA-V = target: T32, P6-AA-12HAA-V; details: mean of both orientations
T32 chain: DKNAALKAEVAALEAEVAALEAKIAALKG

P6-AA-12HAA-Y = target: T33, P6-AA-12HAA-Y; details: mean of both orientations
T33 chain: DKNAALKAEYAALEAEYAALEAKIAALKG

Binder	interaction score (P6-AA-1HAA-D)	interaction score (P6-AA-1HAA-E)	interaction score (P6-AA-1HAA-H; mean of both orientations)	interaction score (P6-AA-1HAA-K; mean of both orientations)	interaction score (P6-AA-1HAA-L)	interaction score (P6-AA-1HAA-N)	interaction score (P6-AA-1HAA-R)	interaction score (P6-AA-1HAA-S)	interaction score (P6-AA-1HAA-T)	interaction score (P6-AA-1HAA-V)	interaction score (P6-AA-1HAA-Y)	interaction score (P2-AA-12HAA-D)	interaction score (P2-AA-12HAA-H)	interaction score (P2-AA-12HAA-I)	interaction score (P2-AA-12HAA-K)	interaction score (P2-AA-12HAA-L; mean of both orientations)	interaction score (P2-AA-12HAA-T)	interaction score (P2-AA-12HAA-V)	interaction score (P2-AA-12HAA-Y)	interaction score (P2-AA)	other results
DENAALEAKEAALKAKNAALKAEIAALEG [P5-AA-1HAA-E]	-1.78	-1.42	-1.76	-1.41	0.711	-0.649	-1.33	-1.13	-0.112	1.57	-0.801										
DEIAALEAESAALEAESAALEAEIAALEG [P1-AA-12HAA-S]												-0.855	1.58	1.69	0.951	2.15	0.962	1.8	0.635	2.24	interaction score (P2-AA-12HAA-E): -0.4; interaction score (P2-AA-12HAA-R; mean of both orientations): 1.11; interaction score (P2-AA-12HAA-S; mean of both orientations): 1.26
DENAALEAKHAALKAKNAALKAEIAALEG [P5-AA-1HAA-H]	-0.238	-0.637	-0.596	-0.495	1.9	1.97	-1.13	0.88	1.49	2.15	0.439										
DEIAALEAELAALEAELAALEAEIAALEG [P1-AA-12HAA-L]												1.26	1.84	1.68	1.6	2.35	2.1	2.38	1.68	1.49	interaction score (P2-AA-12HAA-E; mean of both orientations): 1.74; interaction score (P2-AA-12HAA-R; mean of both orientations): 1.7; interaction score (P2-AA-12HAA-S): 1.59
DENAALEAKSAALKAKNAALKAEIAALEG [P5-AA-1HAA-S]	-1.74	-0.781	0.0581		1.67	0.913	-0.821	-0.742	0.235	2.16	0.832										interaction score (P6-AA-1HAA-K): -1.01
DENAALEAKNAALKAKNAALKAEIAALEG [P5-AA-1HAA-N]	-0.622	0.442	1.2	0.958	1.05	2.27	0.871	1.15	1.25	1.86	1.5										interaction score (P6-AA-12HAA-D): -1.55; interaction score (P6-AA-12HAA-E): -0.844; interaction score (P6-AA-12HAA-H): 0.901; interaction score (P6-AA-12HAA-K): -0.291; interaction score (P6-AA-12HAA-L): -0.372; interaction score (P6-AA-12HAA-R): -0.112; interaction score (P6-AA-12HAA-S): -0.405; interaction score (P6-AA-12HAA-T): -0.0689; interaction score (P6-AA-12HAA-V): -0.62; interaction score (P6-AA-12HAA-Y): 0.697
DEIAALEAEYAALEAEYAALEAEIAALEG [P1-AA-12HAA-Y]												-0.93	1.67	1.8	1.89	2.1	1.76	1.72	2.02	1.97	interaction score (P2-AA-12HAA-E): 1.74; interaction score (P2-AA-12HAA-R; mean of both orientations): 1.4; interaction score (P2-AA-12HAA-S; mean of both orientations): 1.85
DEIAALEAETAALEAETAALEAEIAALEG [P1-AA-12HAA-T]												-1.06	1.5	1.84	1.37	1.97	1.56	1.98	1.53	2.07	interaction score (P2-AA-12HAA-E; mean of both orientations): 0.124; interaction score (P2-AA-12HAA-R): 1.79; interaction score (P2-AA-12HAA-S; mean of both orientations): 1.33
DENAALEAKLAALKAKNAALKAEIAALEG [P5-AA-1HAA-L]	-0.436	1.45	1.55	1.78	2.49	1.66	1.43	1.85	2.08	2.31	1.93										
DENAALEAKRAALKAKNAALKAEIAALEG [P5-AA-1HAA-R]	-0.756	-0.332		-0.713	2.18	1.85	-1.22	0.434	1.54	2.18	0.0514										interaction score (P6-AA-1HAA-H): -0.333
DENAALEAKVAALKAKNAALKAEIAALEG [P5-AA-1HAA-V]	0.818	2.25	1.79	2.25	2.32	1.42	1.76	1.53	1.93	2.09	2.48										
DEIAALEAEEAALEAEEAALEAEIAALEG [P1-AA-12HAA-E]												-1.42	1.59	1.5	1.62	1.82	0.375	1.49	-0.0466	1.91	interaction score (P2-AA-12HAA-E; mean of both orientations): -0.819; interaction score (P2-AA-12HAA-R; mean of both orientations): 1.71; interaction score (P2-AA-12HAA-S; mean of both orientations): 0.789
DEIAALEAEKAALEAEKAALEAEIAALEG [P1-AA-12HAA-K]												-0.759	0.974	1.67	-1.33		0.253	1.38	0.916	1.75	interaction score (P2-AA-12HAA-E; mean of both orientations): -0.226; interaction score (P2-AA-12HAA-L): 1.62; interaction score (P2-AA-12HAA-R; mean of both orientations): -0.283; interaction score (P2-AA-12HAA-S; mean of both orientations): -0.0454
DENAALEAKTAALKAKNAALKAEIAALEG [P5-AA-1HAA-T]	-0.594	0.317	1.47	0.498	1.91	0.702	0.322	0.78	0.456	2.01	1.19										

Source: publication PMC10397247
